# Measured values: the nanobody polyreactivity screen of Harvey et al. (2022)
# Assay: yeast display, Sf9 membrane polyspecificity reagent, FACS + sequencing; frameworks hold sequencing errors
# Outline: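 Galactose-induced (36–48 hours) yeast carrying a synthetic nanobody display library were exposed to 10% biotinylated, detergent-solubilized Sf9 membrane reagent at 4 °C for 1 hour. FACS followed streptavidin microbead enrichment, using low and high (top ~1%) gates for expression (anti-HA) and reagent binding (streptavidin). Colony PCR, MiSeq 2 × 250 sequencing and CDR-length filtering followed. Labels for polyreactivity reflect the gate of origin.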
row,Sequence,polyreactivity (PSR sort gate)
1,QVQLVESGGGLVQAGGSLRLSCAASGSIFAKYAMGWYRQAPGKERELVAAITSGGSTNYADSVKGRFTISRDNAKITVYLQINSLKPEDTAVYYCNATGLYYDFYKLDYWGQGTQVTVSS,low polyreactivity
2,QVQLVESGGGLVQAGGSLRLSCAASGSIFAKYAMGWYRQAPGKERELVAAITSGGSTNYADSVKGRFTISRDNAKNTVYLQMTSLKPEDTAVYYCAARNHYRGYYWGQGTHVTVSS,low polyreactivity
3,QVQLVESGGGLVQAGGSLRLSCAASGSIFAKYAMGWYRQAPGKERELVAAITYSSSSTYYADSVKGRFTISRDNAKNTVYLQMNSLKPEDTAVYYCAARKKARGHGGNDYWGQGTLVTVSS,high polyreactivity
4,QVQLVESGGGLVQAGGSLRLSCAASGSIFAKYAMGWYRQAPGKERELVASITYSGGGTYYADSVKGRFTISLDNAKNTVYLQMNSLKPEDTAFYYCNAVKRVYIWASFRYVFWYDSWGQATQVTVSS,high polyreactivity
5,QVQLVESGGGLVQAGGSLRLSCAASGSIFAKYAMGWYRQAPGKERELVAVITSRGGTYYADSVKGRFTISRDNAKKTVYLQMNSLKPEDTAVYYCAARGGGQPVAYDYWGQGTQVTVSS,high polyreactivity
6,QVQLVESGGGLVQAGGSLRLSCAASGSIFAKYAMGWYRQAPGKESEFVAAIRASGGRTYYADSVKGRFTISRDNAKNTVYLQMNSLKPEDTAVYYCAAHLYSSRSDYDGPRSRRNYWGQGTQVTVSS,high polyreactivity
7,QVQLVESGGGLVQAGGSLRLSCAASGSIFAKYTMGWYRQAPGKERELVAAITRSGTSTRYADSVKGRFTISRDNAKNTVYLQMNSLKPEDTAVYYCAASLYSWGQGTQVTVSS,high polyreactivity
8,QVQLVESGGGLVQAGGSLRLSCAASGSIFANNVMGWYRQAPGKEREFVAAISWSGGRTYYADSVTGRFTISRDNAKNTVYLQMNSLKPEDTAVYYCARRPRAWGQGTQVTVSS,high polyreactivity
9,QVQLVESGGGLVQAGGSLRLSCAASGSIFAPYAMGWYRQAPGKERELVAAINNNGGRTYYADSVKGRFTISRDNAKNTVYLQMNSLKPEDTAVYYCAADIYPDWIYLLYGYWGQGTQVTVSS,low polyreactivity
10,QVQLVESGGGLVQAGGSLRLSCAASGSIFARNAMGWYRQAPGKERELVAAISRSGGITYYADSVKGRFTISRDNAKNTVYLQMNSLKPEDTAVYYCATVGYYKGNQVLPAKDGDSWGQGTQVTVSS,high polyreactivity
11,QVQLVESGGGLVQAGGSLRLSCAASGSIFARNAMGWYRQAPGKERELVASITWSGASTYYADSVKGRFTISRDNAKNTVYVQMNSLKPEDTAVYYCAATDQKLSLDYSSYEYWGQGTQVTVSS,low polyreactivity
12,QVQLVESGGGLVQAGGSLRLSCAASGSIFARNAMGWYRQAPGKERELVAVITTGGRTYYADSVKGRFTISRDNAKNTVYLQMNSLKPEDTAVYYCATRVIYGQSGGYWGQGTQVTVSS,high polyreactivity
13,QVQLVESGGGLVQAGGSLRLSCAASGSIFARYAMGWYRQAPGKERELVAAISGSGASTYYADSVKGRFTISRDNAKNTVFLQMNSLKPEDTAVYYCARPFLRRPTYRFESGYGYWGQGTQVTVSS,high polyreactivity
14,QVQLVESGGGLVQAGGSLRLSCAASGSIFARYAMGWYRQAPGKERELVATISYRGSSTYYADSVKGRFTISRDNAKNTVYLQMNSLKPEDTAVYYCAARTYRRIYAYYRFDYWGQGTQVTVSS,low polyreactivity
15,QVQLVESGGGLVQAGGSLRLSCAASGSIFARYAMGWYRQAPGTERELVAAISRNGGSTYYADSVKGRFTISRDNAKNTVYLQMNSLKPEDTAVYYCAASYYVLYTREYDYWGQGTQVTVSS,low polyreactivity
16,QVQLVESGGGLVQAGGSLRLSCAASGSIFASYAMGWYRQAPGKERELVAAIRSSGGRTYYADSVKGRFTISRDNAKNTVYLQMNSLKPEDTAVYYCNARRPGYRPYGYDYWGQGTQVTVSS,high polyreactivity
17,QVQLVESGGGLVQAGGSLRLSCAASGSIFASYAMGWYRQAPGKERELVAAISARGGSTYYADSVKGRFTISRDNAKNTVYLQMNSLKPEDTAVYYCAARHQQGRRISDYGYWGQGTQVTVSS,high polyreactivity
18,QVQLVESGGGLVQAGGSLRLSCAASGSIFASYVMGWYRQAPGKERELVASITLSGGSTYYADSVKGRFTISRDNAKNTVYLQMNSLKPEDTAVYYCAKRGTLWLQEDYYWGQGTQVTVSS,low polyreactivity
19,QVQLVESGGGLVQAGGSLRLSCAASGSIFATHAMGWYRQAPGQDRELVAAISWRTGSTVYADSVKGRFTISRDNAKNTDYLQMNSLKPEDTAVYYCAATRRGDNYRYDYWGQGTQVTVSS,high polyreactivity
20,QVQLVESGGGLVQAGGSLRLSCAASGSIFAVNTMGWYRQAPGKERELVAAISQRGSSTYYADSVKGRFTISRDNAKNTVYLQMNSLKPEDTAVYYCAKRFIYGRYNYWGQGTQVTVSS,high polyreactivity
21,QVQLVESGGGLVQAGGSLRLSCAASGSIFAVYAMGWYRQAPGKERELVASISRRGGSTYYADSVKGRFTISRDNAKNTVYLQMNSLKPEDTAVYYCAATGRRGYGYGYWGQGTQVTVSS,high polyreactivity

row,Sequence,polyreactivity (PSR sort gate)
1,QVQLVESGGGLVQAGGSLRLSCAASGSIFAVYAMVWYRQAPGKERELVAAISWSVGSTYYADSVKGRFTISRDNAKNTVYLQMNRLKPEDTAVYYCAADLAYYLDYVEYFTEIELEGYWGQGTQVTVSS,low polyreactivity
2,QVQLVESGGGLVQAGGSLRLSCAASGSIFAWYAMGWYRQAPGKERELVATITWSGGSTYYADSVKGRFTISRDNAKNTVYLQMNSLKPEDTAVYYCAAEVVGICYDLWYQGDYWGQGTQVTVSS,low polyreactivity
3,QVQLVESGGGLVQAGGSLRLSCAASGSIFAWYAMGWYRQAPGKERELVAVITRGGSTNYADSVKGRFTISRDNAKNTVYLQMNSLKPEDTAVYYCAAGSYYSWYPFDYWGQGTQVTVSS,low polyreactivity
4,QVQLVESGGGLVQAGGSLRLSCAASGSIFAWYGMGRYRQAPGIERELVAAITTAGSTNYADSVKGRFTISRDNAKNTVYLHMNSLKPEDTAVYYCATATPYVSLKDAHDYGGQGTQVTVSS,low polyreactivity
5,QVQLVESGGGLVQAGGSLRLSCAASGSIFAWYGMGWYRPAPGKERELVAAISTAGSTNYADSVKGRFTISRDNAKNTVYLQMNSLKPEDTAVYYCAKKSSWYYPERFDYWGQGTQVTVSS,low polyreactivity
6,QVQLVESGGGLVQAGGSLRLSCAASGSIFAWYGMGWYRQAPGKERELVAAITSTGSTYYADSVKGRFTISRDNAKNTVYLQMNSLKPEDTAVYDCNAYSVYLWRPGDYWGLGTQVTVSS,low polyreactivity
7,QVQLVESGGGLVQAGGSLRLSCAASGSIFAWYGMGWYRQAPGKERELVAAITSTGSTYYADSVKGRFTISRDNAKNTVYLQMNSLKPEDTAVYYCNDYSVYLWRPGDYWGQGTQVTVSS,low polyreactivity
8,QVQLVESGGGLVQAGGSLRLSCAASGSIFAYAMGWYRQAPGKERELVAGISSSGGRTYYADSVKGRFTISRDNAKNTVYLQMNRLKPEDTAVYYCAAKRWGLYKGYNCGQGTQVTVSS,high polyreactivity
9,QVQLVESGGGLVQAGGSLRLSCAASGSIFAYNAMGWYIQAPGKERELVATITVRGGSTYYADSVKGRFTISRDNAKNTFYLQMNSLKPEDTAVYFCAVRTYRYYRYNYWGQGTQVTVSS,high polyreactivity
10,QVQLVESGGGLVQAGGSLRLSCAASGSIFAYNAMGWYRQAPGKERELVAAISVSDGITYYADSVKGRFTISRDNAKNTVYLQMNSLKPEDTAVYYCAARTRGPYRAYDYWGQGTQVTVSS,low polyreactivity
11,QVQLVESGGGLVQAGGSLRLSCAASGSIFAYYAMGGYRQAPGKEREFVAAISKRGGRTYYADSVKGRFTISRDNAKNTVYLQMNSLKPEDTAVYYCAAPWAYPRSGGDYWGQGTQVTVSS,high polyreactivity
12,QVQLVESGGGLVQAGGSLRLSCAASGSIFAYYAMGWYRQAPGKERELVAAISGTGGSTNYADSVKGRFTISRDNAKNTVYLQMNSLKPEDTAVYYCAKDYSFQWRNEFNLAGEYDYWGQGTQVTVSS,low polyreactivity
13,QVQLVESGGGLVQAGGSLRLSCAASGSIFAYYAMGWYRQAPGKERELVAAISYSGDGTYYADSVKGRFTISRDNAKNTVYFQMNSLKPEDTAVYYCAADWDGYFYKSNWDYNYWGQGTQVTVSS,low polyreactivity
14,QVQLVESGGGLVQAGGSLRLSCAASGSIFAYYAMGWYRQAPGKERELVAGIRISGGRTYYADSVKGRFTISRDNAKNTVYLQMNSLKPEDTAVYYCNARWRGFRTGAGDYWGQGTQVTVSS,high polyreactivity
15,QVQLVESGGGLVQAGGSLRLSCAASGSIFAYYAMGWYRQAPGKERELVAVIRSGGSTYYADSVKGRFTISRDNEKNTVYLQMNSLNPEDTAVYYCAAPSYRPSRGDYWGQGTQVTVSS,high polyreactivity
16,QVQLVESGGGLVQAGGSLRLSCAASGSIFAYYAMGWYRQAPGKERELVAVISRGGSTYYADSVKGRFTISRDNATNTVYLQMNSLKPEDTAVYYCAADDTRGREEYDYWGQGTQVTVSS,high polyreactivity
17,QVQLVESGGGLVQAGGSLRLSCAASGSIFCDNAMGWYRQEPGKERELVAAISIVGSTSYADSVKGRFTISRDNANNTVYLQMNSLKPEDTAVYYCAAENVRSDTGFDYWGQGTQVTVSS,low polyreactivity
18,QVQLVESGGGLVQAGGSLRLSCAASGSIFCSYAMGWYRPAPGKERELVAAITQRGGRTYYADSVKGRFTISRENAKNTVYLQMNSLKPEDTAVYYCAAKNRISRPSPYDYWGQGTQVTVSS,high polyreactivity
19,QVQLVESGGGLVQAGGSLRLSCAASGSIFDAYAMGWYRQAPGKERELVAAITTGGGSTYYADSVKGRFTISRDTAKNTVYLQMNSLKPEDTAVYYCARDYGKYKGYYWGQGTQVTVSS,low polyreactivity
20,QVQLVESGGGLVQAGGSLRLSCAASGSIFDAYVMGWYRQAPGKERELVAAISRSGGSTYYADSVKGRFTISRDNAKNTVYLQMNSLKPEDTAVYYCAAEKIRSSPYRYDYWGQGTQVTVSS,low polyreactivity
